# Test results reported in article PMC9043842 (RSC Advances, 2021).
# Like-named read-outs stand apart in the source and are kept apart here.
# Assays:
# Assay in all cases: SEC
# SEC [1] = biological target: the molecule itself
# SEC [2] = biological target: the molecule itself; remark: listed apart in the source
# SEC [3] = biological target: the molecule itself; remark: listed apart in the source
Protein,dimer-to-monomer ratio after heating (SEC [1]),Ka (SEC [2]),dH (SEC [2]),Ka (SEC [3]),dH (SEC [3])
G80A/H81A (K3A2H) horse myoglobin (natural protein) GLSDGEWQQVLNVWGKVEADIAGHGQEVLIRLFTGHPETLEKFDKFKHLKTEAEMKASEDLKKHGTVVLTALGGILKKKAAHEAELKPLAQSHATKHKIPIKYLEFISDAIIHVLHSKHPGDFGADAQGAMTKALELFRNDIAAKYKELGFQG,92%,920000 M⁻¹,-30.8 ± 1.1 kcal/mol,–,–
G80A/H81A/L137E (K3A2H-L137E) horse myoglobin (natural protein) GLSDGEWQQVLNVWGKVEADIAGHGQEVLIRLFTGHPETLEKFDKFKHLKTEAEMKASEDLKKHGTVVLTALGGILKKKAAHEAELKPLAQSHATKHKIPIKYLEFISDAIIHVLHSKHPGDFGADAQGAMTKALEEFRNDIAAKYKELGFQG,97%,–,–,9.4e+06 M⁻¹,-63.2 ± 5.1 kcal/mol
G80A/H81A/L137D (K3A2H-L137D) horse myoglobin (natural protein) GLSDGEWQQVLNVWGKVEADIAGHGQEVLIRLFTGHPETLEKFDKFKHLKTEAEMKASEDLKKHGTVVLTALGGILKKKAAHEAELKPLAQSHATKHKIPIKYLEFISDAIIHVLHSKHPGDFGADAQGAMTKALEDFRNDIAAKYKELGFQG,98%,–,–,2.3e+07 M⁻¹,-100 ± 4 kcal/mol
